Data: doi:10.1101/2025.06.13.659497

Target: biotinylated recombinant bovine serum albumin with N-terminal Avi tag (rBSA-Bt) (Bos taurus)
Assay: SPR

Chain of streptavidin (P22629 25-183): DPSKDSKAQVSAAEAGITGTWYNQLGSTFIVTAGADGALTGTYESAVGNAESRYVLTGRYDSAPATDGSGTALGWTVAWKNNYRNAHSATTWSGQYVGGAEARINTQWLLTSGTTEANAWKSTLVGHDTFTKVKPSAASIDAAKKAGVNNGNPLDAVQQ

streptavidin (from UniProt P22629 25-183) (natural protein)
surface density: 28 ng/cm^2
